Experimental data from publication PMC10711807.

Molecular target: TOLLIP, recombinant from bacteria, biotinylated (human), Q9H0E2
Assay: BLI
Settings: remark: other sources report otherwise

B1: IRAK1, recombinant from bacteria, P51617 1-712 (enzyme)
chain: MAGGPGPGEPAAPGAQHFLYEVPPWVMCRFYKVMDALEPADWCQFAALIVRDQTELRLCERSGQRTASVLWPWINRNARVADLVHILTHLQLLRARDIITAWHPPAPLPSPGTTAPRPSSIPAPAEAEAWSPRKLPSSASTFLSPAFPGSQTHSGPELGLVPSPASLWPPPPSPAPSSTKPGPESSVSLLQGARPFPFCWPLCEISRGTHNFSEELKIGEGGFGCVYRAVMRNTVYAVKRLKENADLEWTAVKQSFLTEVEQLSRFRHPNIVDFAGYCAQNGFYCLVYGFLPNGSLEDRLHCQTQACPPLSWPQRLDILLGTARAIQFLHQDSPSLIHGDIKSSNVLLDERLTPKLGDFGLARFSRFAGSSPSQSSMVARTQTVRGTLAYLPEEYIKTGRLAVDTDTFSFGVVVLETLAGQRAVKTHGARTKYLKDLVEEEAEEAGVALRSTQSTLQAGLAADAWAAPIAMQIYKKHLDPRPGPCPPELGLGLGQLACCCLHRRAKRRPPMTQVYERLEKLQAVVAGVPGHSEAASCIPPSPQENSYVSSTGRAHSGAAPWQPLAAPSGASAQAAEQLQRGPNQPVESDESLGGLSAALRSWHLTPSCPLDPAPLREAGCPQGDTAGESSWGSGPGSRPTAVEGLALGSSASSSSEPPQIIINPARQKMVQKLALYEDGALDSLQLLSSSSLPGLGLEQDRQGPEESDEFQS
modifications: here or on the partner: biotin (biotinylated TOLLIP; site not told)
In the case of B1, the Kd is reported as 91.5 nM.
